Residue numbers refer to the chain shown, from its start. Entries after “also recorded” stand apart in the source; their conditions may differ.
How the values were obtained:
I-E^d [1] = target: T1, I-E^d (Mus musculus, UniProt P01904+P01915); assay: Inhibition of binding of 125I-labeled Myoglobin (P132-153) to I-E^d; details: 125I Myoglobin (P132-153) bound to I-E^d; read-out: Concentration (μM) of P12-26 Required for 50 percent Inhibition
T1 construct: endogenous in cells
T1 sequence (P01904 26-255): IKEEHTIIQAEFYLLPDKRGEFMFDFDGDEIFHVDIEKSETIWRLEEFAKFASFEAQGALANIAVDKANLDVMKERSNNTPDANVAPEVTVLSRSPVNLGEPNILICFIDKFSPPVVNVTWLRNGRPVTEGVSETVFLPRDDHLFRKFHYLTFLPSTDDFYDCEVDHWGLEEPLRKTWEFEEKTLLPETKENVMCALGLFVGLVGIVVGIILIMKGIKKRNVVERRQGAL
T1 sequence (P01915 27-264 limits assumed): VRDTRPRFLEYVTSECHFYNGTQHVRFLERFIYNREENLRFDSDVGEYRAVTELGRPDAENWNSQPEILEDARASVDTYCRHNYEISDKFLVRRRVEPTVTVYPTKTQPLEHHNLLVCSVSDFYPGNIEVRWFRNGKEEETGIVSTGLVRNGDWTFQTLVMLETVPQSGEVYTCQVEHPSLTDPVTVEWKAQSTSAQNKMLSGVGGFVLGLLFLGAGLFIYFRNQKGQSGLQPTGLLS
From the text: (§1) Ia-molecules were purifed from Nonidet P-40 (NP-40) lysates of A20 (H2^d) or AKTB-1b (H2^k) cells by affinity chromatography using the following monoclonal antibodies: MK-D6 (I-A^d -specific), 10-3-6 (I-A^k -specific) specific) or 14-4-4 (I-E^d/k -specific) coupled to Sepharose 4B beads (Pharmacia Fine Chemicals, Sweden).
A gel filtration assay was used for determining the degree of association between immunogenic peptides and Ia. The assay is described in: Buus, S. et al., Proceeding of the National Academy of Sciences, U.S.A. (1986) 83:3968, the teaching of which is incorporated herein by reference. […] The Ia-peptide complexes were separated from free peptide by gel filtration and the percentage of peptide bound to Ia was calculated as the ratio of the ^125 I-labeled peptide in the void volume to the total ^125 I-labeled peptide recovered.
For the inhibition assay a dose-range of unlabeled cI P12-26 peptide was added to the incubation mixture of Ia and ^125 I-labeled peptide (600, 120, 24, ad 48 μM). The degree of association between Ia and labeled peptide was determined by gel filtration as described in Table 1. […] The concentration of inhibitory peptide required to obtain a 50 percent inhibition of binding was calculated. […]

I-E^d [2] = target: T1, I-E^d; assay: Gel filtration binding of 125I-labeled peptide to purified Ia (I-E^d)
From the text: (§2) The peptide P12-26 was modified by the addition of a tyrosine residue to the N-terminus to serve as an acceptor for the ^125 I.
as §1
(§3) A gel filtration assay was used for determining the degree of association between immunogenic peptides and Ia. The assay is described in: Buus, S. et al., Proceeding of the National Academy of Sciences, U.S.A. (1986) 83:3968, the teaching of which is incorporated herein by reference. Briefly, 40 μmole of purified Ia in 1 percent NP-40/PBS was mixed with 0.2 μmole of ^125 I-labeled peptide (approximately 200,000 cpm for each experiment) and incubated for 48 hours at room temperature to allow for formation of the Ia-peptide complex. The Ia-peptide complexes were separated from free peptide by gel filtration and the percentage of peptide bound to Ia was calculated as the ratio of the ^125 I-labeled peptide in the void volume to the total ^125 I-labeled peptide recovered.

[3] = system: Lymph node-derived T-cell; assay: Lymph node-derived T-cell proliferation in mice immunized with (NANP)3-12-26; format: in vivo; details: eight days after immunization with (NANP)3-12-26
Procedure: For T-cell proliferation studies 100 μg of (NANP)3-12-26 emulsified in CFA was injected in the base of the tail and also food pad of mice on day 0. […] Cells were seeded at 8×10^5 /well flat bottom microtiter plates 1/2 volume in 0.1 ml RPMI containing 10% FCS, […], penicillin, streptomycin and antigen. On day 2, 1 μCi of ^3 H thymidine (ICN) was added to triplicate or duplicate cultures. 16 hr later cells were harvested and incorporated ^3 H was assayed by scintillation counter.
All T-cell activity is directed to the Class II binding sequence.

I-E^k = target: T2, I-E^k (Mus musculus, UniProt P04224+P04230); assay: Gel filtration binding of 125I-labeled peptide to purified Ia (I-E^k)
T2 sequence (P04224 26-255): T1 sequence (P01904 26-255) with T177H, M194V
T2 sequence (P04230 27-264): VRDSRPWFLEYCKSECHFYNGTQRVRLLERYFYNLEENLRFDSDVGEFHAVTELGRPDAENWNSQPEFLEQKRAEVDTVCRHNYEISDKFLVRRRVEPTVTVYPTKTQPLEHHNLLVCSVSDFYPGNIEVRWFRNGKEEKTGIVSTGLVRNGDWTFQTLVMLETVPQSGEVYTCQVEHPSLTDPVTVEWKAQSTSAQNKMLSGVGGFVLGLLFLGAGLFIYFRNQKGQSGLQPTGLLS
From the text: as §2, §1, §3

Substance: P12-26: derived from the cI protein of bacteriophage lambda (residues 12-26)
- IC50 (I-E^d [1]): 4 µM
- Binding to the I-E^d molecule (in words) (I-E^d [2]): binds most tightly; also recorded: binds best; also recorded: binds exceedingly well
- T-cell proliferation by thymidine incorporation on culture with peptide [3]: T-cell proliferation as assayed by thymidine incorporation was seen
- Binding to the I-E^k molecule (in words) (I-E^k): able to bind to both molecules as expected

Reference: patent US5019384A, “Immunonodulating compositions and their use” (Massachusetts Institute of Technology, priority 1989, dated 1991)
